Residue numbers refer to the chain shown, from its start. In names and notes the source's numbering stands.
Tests used:
[1] = target: T1, biotinylated α-bungarotoxin from Bungarus multicinctus (Bungarus multicinctus); assay: BLI; […]; association at pH 7.4, dissociation at pH 5.5; 1:1 global fit; details: both partners purified
[2] = target: T2, biotinylated α-elapitoxin-Dpp2d from Dendroaspis polylepis (Dendroaspis polylepis (black mamba), UniProt C0HJD7); assay: BLI; […]; association at pH 7.4, dissociation at pH 7.4; 1:1 global fit, […]; details: both partners purified
T2 sequence (C0HJD7 whole entry): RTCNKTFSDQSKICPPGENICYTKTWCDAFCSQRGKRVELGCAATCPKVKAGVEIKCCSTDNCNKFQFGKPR

[3] = target: T1, biotinylated α-bungarotoxin from …; assay: as above; details: both partners purified
[4] = target: T2, biotinylated α-elapitoxin-Dpp2d from …; assay: BLI; […]; association at pH 7.4, dissociation at pH 5.5; 1:1 global fit; details: both partners purified
[5] = target: T3, biotinylated α-cobratoxin from Naja kaouthia (Naja kaouthia, biotin through amine coupling (NHS-PEG4-Biotin), sites not stated); assay: BLI; details: both partners purified
T3 chain: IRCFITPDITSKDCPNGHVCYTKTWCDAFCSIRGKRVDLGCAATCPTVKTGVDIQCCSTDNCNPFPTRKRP

[6] = target: T4, biotinylated α-elapitoxin-Dpp2d from Dendroaspis polylepis (Dendroaspis polylepis (black mamba), UniProt C0HJD7); assay: DELFIA (dissociation-enhanced lanthanide fluorescence immunoassay); details: one partner purified
[7] = target: T5, α-bungarotoxin from Bungarus multicinctus (Bungarus multicinctus, UniProt P60615); assay: crystal structure; details: both partners purified
T5 construct: source: bought: Latoxan L8115, lyophilized purified protein

[8] = target: biotinylated α-bungarotoxin from Bungarus multicinctus (Bungarus multicinctus, UniProt P60615); assay: BLI; details: both partners purified
[9] = target: biotinylated α-cobratoxin from Naja kaouthia (Naja kaouthia, UniProt P01391); assay: BLI; details: both partners purified
[10] = target: T4, biotinylated α-elapitoxin-Dpp2d from …; assay: BLI; […]; association at pH 7.4, dissociation at pH 7.4; 1:1 model, global fit; […]; details: both partners purified
Target sequence in this assay (C0HJD7 whole entry): as the sequence (C0HJD7 whole entry) above

[11] = target: T4, biotinylated α-elapitoxin-Dpp2d from …; assay: BLI; details: both partners purified
Target sequence in this assay (C0HJD7 whole entry): as the sequence (C0HJD7 whole entry) above

T1 sequence (P60615 22-95): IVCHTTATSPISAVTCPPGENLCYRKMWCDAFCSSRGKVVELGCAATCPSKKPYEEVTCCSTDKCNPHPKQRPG
biotinylated α-bungarotoxin from Bungarus multicinctus, sequence (P60615 22-95): as above
T5 sequence (P60615 22-95): as above

B1: D11 Fab (Fab, V domains shown)
VH: QVQLVQSGAEVKKPGSSVKVSCKASGGTFSSYAISWVRQAPGQGLEWMGGIIPIFGTANYAQKFQGRVTITADESTSTAYMELRSLRSDDTAVYYCARDNLGYCSGGSCYSDYYYYYMDVWGQGTLVTVSS
VL: NFMLTQPRSVSESPGKTVTISCTRSSGSIGSDYVHWYQQRPGSSPTTVIYEDNQRPSGVPDRFSGSIDSSSNSASLTISGLKTEDEADYYCQSYDRSNHEVVFGGGTKLTVL
B1 was tested, and the koff [1] was 0.005 s⁻¹, the Kd [2] was 1.4 ± 0.6 nM and the kon [2] was 121000 M⁻¹ s⁻¹. For the same binder, the Kd [3] was 116 ± 19.6 nM, the koff [3] was 0.0047 s⁻¹ and the kon [3] was 13000 M⁻¹ s⁻¹. For the same binder, the koff [4] was 0.00041 s⁻¹, the Kd [5] was 1.8 ± 0.5 nM and the koff [5] was 0.00029 s⁻¹. The kon [5] was 65000 M⁻¹ s⁻¹.

B2: C05 scFv with T31D (CDR-L1) (scFv, V domains shown)
VH: B1 VH
VL: B1 VL with R8H, G30A, S44A, R96S, H99G, E100S
notes: source: E. coli BL21(DE3), in culture supernatant
B2: binds [6].

B3: D11 scFv, 6xHis-FLAG removed with TEV protease (construct for crystals) (scFv, V domains shown)
VH: B1 VH
VL: B1 VL
notes: source: E. coli BL21(DE3), purified (HisTrap, TEV cleavage, SEC)
B3: binds [7].

B4: D11 Fab (Fab, V domains shown)
VH: B1 VH
VL: B1 VL
notes: also called D11 mAb
With B4 the binding result [8] was “binds”, the koff [9] was 0.00012 s⁻¹ and the koff [10] was 0.00015 s⁻¹.

B5: A01 Fab (Fab, V domains shown)
VH: B1 VH
VL: SYELTQPPSVSVAPGRTATITCEGDNIGQQIVHWYQQKPGQAPVAVISSDSDRPSGIPERFSGSNSGNTATLTISRVEAGDEADYYCQVWDSGSDHVVFGGGTKVTVL
notes: also called A01 mAb
B5 was tested, and the koff [11] was 0.0295 s⁻¹, the binding result [8] was “binds” and the Kd [10] was 2.1 ± 0.1 nM. The koff [10] was 0.00017 s⁻¹.

Source: paper PMC12439581 (mAbs, 2025)
